The record followed here is paper PMC3167817, “A Neutralizing RNA Aptamer against EGFR Causes Selective Apoptotic Cell Death”.

The target of series [1] is EC-EGFR (soluble extracellular domain), disulfide-linked homodimer (human, UniProt P00533 25-645). Description: filter binding; Filter binding: 1 nM radiolabeled RNA, PBS + 0.01% BSA, 15 min, 37 C (5 mM DTT for monomer); CL4sc background subtracted; pull-down: 200 nM aptamer on A549 cells 30 min RT, lysis in 10 mM Tris-HCl pH 7.5, 200 mM NaCl, 5 mM EDTA, 0.1% Triton X-100. To be noted: protein: commercial, chain copies: 2.

The target of series [2] is EC-ErbB3 (soluble extracellular domain), disulfide-linked homodimer (human, UniProt P21860 20-643). Kind of series: filter binding; 20 and 40 nM protein; Filter binding: 1 nM radiolabeled RNA, PBS + 0.01% BSA, 15 min, 37 C (5 mM DTT for monomer); CL4sc background subtracted; pull-down: 200 nM aptamer on A549 cells 30 min RT, lysis in 10 mM Tris-HCl pH 7.5, 200 mM NaCl, 5 mM EDTA, 0.1% Triton X-100. The conditions noted are these: protein: commercial, chain copies: 2.

One may read the Kd as the constant that tells how readily two partners part at equilibrium.

EC-ErbB3 (soluble extracellular domain), disulfide-linked homodimer, sequence (P21860 20-643): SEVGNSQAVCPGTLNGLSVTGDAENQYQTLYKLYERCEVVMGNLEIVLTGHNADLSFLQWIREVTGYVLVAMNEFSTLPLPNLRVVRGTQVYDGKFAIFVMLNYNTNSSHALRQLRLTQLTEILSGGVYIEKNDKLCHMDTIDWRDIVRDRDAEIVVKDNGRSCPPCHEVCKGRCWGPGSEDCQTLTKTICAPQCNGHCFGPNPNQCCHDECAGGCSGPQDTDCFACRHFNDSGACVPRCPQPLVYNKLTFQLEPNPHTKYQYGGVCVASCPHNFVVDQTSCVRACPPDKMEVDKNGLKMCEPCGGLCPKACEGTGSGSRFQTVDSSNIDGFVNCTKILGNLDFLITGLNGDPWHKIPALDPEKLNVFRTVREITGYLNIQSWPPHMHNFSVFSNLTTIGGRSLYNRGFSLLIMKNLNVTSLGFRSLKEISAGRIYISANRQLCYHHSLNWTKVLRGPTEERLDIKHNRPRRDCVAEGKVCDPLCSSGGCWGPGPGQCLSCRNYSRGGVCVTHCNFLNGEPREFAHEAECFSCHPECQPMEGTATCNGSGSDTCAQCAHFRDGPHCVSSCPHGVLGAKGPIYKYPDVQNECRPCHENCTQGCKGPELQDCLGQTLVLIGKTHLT

B1: CL4 (structured_RNA)
RNA: GCCUUAGUAACGUGCUUUGAUGUCGAUUCGACAGGAGGC
modifications: 2'-fluoro pyrimidines
Take B1: in series [1], the Kd turned out to be 10 nM. Also, the binding result in series [2] was “no binding”.
